From article PMC7885793 (Biochemistry, 2019)

Experiments:
PLCβ3-Δ892 ΔXY2 = target: T1, PLCβ3-Δ892 ΔXY2 (Homo sapiens, UniProt Q01970 10-892, ΔXY2 (residues 471–584)); experiment: cell-based or functional assay
T1 sequence (looked up): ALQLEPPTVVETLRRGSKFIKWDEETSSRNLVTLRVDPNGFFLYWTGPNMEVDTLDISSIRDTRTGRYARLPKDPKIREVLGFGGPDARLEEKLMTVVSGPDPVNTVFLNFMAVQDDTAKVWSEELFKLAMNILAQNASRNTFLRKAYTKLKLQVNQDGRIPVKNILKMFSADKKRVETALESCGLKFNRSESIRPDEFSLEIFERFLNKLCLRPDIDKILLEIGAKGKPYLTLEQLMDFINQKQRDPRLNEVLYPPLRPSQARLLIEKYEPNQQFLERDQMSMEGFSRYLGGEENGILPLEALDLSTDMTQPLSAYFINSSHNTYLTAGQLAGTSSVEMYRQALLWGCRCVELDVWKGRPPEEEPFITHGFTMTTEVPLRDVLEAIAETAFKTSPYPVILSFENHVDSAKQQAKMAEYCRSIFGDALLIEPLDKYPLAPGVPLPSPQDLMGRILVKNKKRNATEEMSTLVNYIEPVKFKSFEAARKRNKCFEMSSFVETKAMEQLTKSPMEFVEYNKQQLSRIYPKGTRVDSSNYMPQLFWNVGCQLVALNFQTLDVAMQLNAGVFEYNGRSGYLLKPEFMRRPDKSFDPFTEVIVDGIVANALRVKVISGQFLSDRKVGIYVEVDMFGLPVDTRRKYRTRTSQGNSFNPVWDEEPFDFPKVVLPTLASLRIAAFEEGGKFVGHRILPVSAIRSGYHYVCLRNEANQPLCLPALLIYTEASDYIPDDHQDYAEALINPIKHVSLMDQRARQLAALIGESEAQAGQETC

[1] = target: T2, Homo sapiens PLCβ3 (residues 10–1234) (Homo sapiens, UniProt Q01970 10-1234); experiment: cell-based or functional assay
T2 sequence (looked up): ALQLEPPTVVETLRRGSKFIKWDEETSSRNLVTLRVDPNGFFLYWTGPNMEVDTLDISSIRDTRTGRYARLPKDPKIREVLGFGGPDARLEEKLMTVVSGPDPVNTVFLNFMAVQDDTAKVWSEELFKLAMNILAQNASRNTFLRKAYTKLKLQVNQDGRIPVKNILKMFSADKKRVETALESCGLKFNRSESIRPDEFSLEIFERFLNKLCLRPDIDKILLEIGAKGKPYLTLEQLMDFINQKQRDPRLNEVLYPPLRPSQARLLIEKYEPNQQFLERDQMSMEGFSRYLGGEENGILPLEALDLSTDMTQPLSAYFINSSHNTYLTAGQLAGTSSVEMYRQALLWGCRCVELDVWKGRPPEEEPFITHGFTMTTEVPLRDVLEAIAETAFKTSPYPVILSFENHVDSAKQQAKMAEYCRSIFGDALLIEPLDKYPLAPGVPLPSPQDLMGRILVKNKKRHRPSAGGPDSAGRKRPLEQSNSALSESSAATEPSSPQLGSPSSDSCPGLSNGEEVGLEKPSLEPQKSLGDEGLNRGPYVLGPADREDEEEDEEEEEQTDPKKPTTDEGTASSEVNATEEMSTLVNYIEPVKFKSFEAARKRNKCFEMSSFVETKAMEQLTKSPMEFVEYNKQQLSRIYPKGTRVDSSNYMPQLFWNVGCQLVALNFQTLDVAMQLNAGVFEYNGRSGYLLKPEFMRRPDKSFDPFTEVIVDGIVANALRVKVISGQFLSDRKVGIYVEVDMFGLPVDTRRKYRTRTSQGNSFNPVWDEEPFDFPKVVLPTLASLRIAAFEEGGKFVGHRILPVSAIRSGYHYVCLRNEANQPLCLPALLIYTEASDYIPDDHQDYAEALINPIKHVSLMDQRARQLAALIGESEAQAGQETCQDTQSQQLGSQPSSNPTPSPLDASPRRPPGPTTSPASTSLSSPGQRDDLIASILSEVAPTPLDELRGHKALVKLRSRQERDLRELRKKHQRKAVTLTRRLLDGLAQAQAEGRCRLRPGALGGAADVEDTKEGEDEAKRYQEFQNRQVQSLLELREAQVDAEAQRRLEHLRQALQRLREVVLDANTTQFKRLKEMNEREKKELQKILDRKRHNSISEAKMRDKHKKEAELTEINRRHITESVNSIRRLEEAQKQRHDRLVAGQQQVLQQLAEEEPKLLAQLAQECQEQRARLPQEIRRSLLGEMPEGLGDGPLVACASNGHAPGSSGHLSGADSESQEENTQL

B1: Activated Gαq (Gαq·GDP-ALF4^−) (natural protein, murine, UniProt P21279 7-359, looked up)
chain: MACCLSEEAKEARRINDEIERQLRRDKRDARRELKLLLLGTGESGKSTFIKQMRIIHGSGYSDEDKRGFTKLVYQNIFTAMQAMIRAMDTLKIPYKYEHNKAHAQLVREVDVEKVSAFENPYVDAIKSLWNDPGIQECYDRRREYQLSDSTKYYLNDLDRVADPSYLPTQQDVLRVRVPTTGIIEYPFDLQSVIFRMVDVGGQRSERRKWIHCFENVTSIMFLVALSEYDQVLVESDNENRMEESKALFRTIITYPWFQNSSVILFLNKKDLLEEKIMYSHLVDYFPEYDGPQRDAQAAREFILKMFVDLNPDSDKIIYSHFTCATDTENIRFVFAAVKDTILQLNLKEYNLV
With B1 the “x-fold maximum activity over basal (complex against the PLCβ3 variant alone)” value (PLCβ3-Δ892 ΔXY2) was 3 x-fold and the “x-fold maximum activity over basal (complex against the PLCβ3 variant alone)” value [1] was 8 x-fold.
